{"source": "patent US20100137420", "key": {"[1]": {"tested_on": "recombinant cystatin C", "sequence (chain, as listed by the source)": "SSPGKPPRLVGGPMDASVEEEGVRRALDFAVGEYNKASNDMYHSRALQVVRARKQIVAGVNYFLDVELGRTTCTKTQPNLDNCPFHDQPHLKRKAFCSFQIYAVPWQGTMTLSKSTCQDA"}, "[2]": {"target": "cathepsin B (from THP-1 cell lysates) (UniProt P07858)"}}}
{"substance": "cathepsin D", "values": [{"measurement": "cleavage of recombinant cystatin C", "setting": "[1]", "value": "cathepsin D cleaved cystatin C at four different sites, and yielded a 12.5 kD fragment following cleavage from the C terminal region"}, {"measurement": "cathepsin B activity (fluorogenic Ac-Arg-Arg-AFC assay)", "setting": "[2]", "value": "Cathepsin D and MMP-2 alone had no effect on cathepsin B activity"}]}
